In patent US20200155714A1, “DUAL-TARGET IMAGING MOLECULAR PROBE, PREPARATION METHOD THEREFOR, AND APPLICATIONS THEREOF” (PEKING UNION MEDICAL COLLEGE HOSPITAL, CHINESE ACADEMY OF …, priority 2017, published 2020):

Design: species or system mice
Settings: mouse, in vivo
Source text: {circumflex over (4)} Biodistribution of ^68Ga-NOTA-3PEG4-TATE-RGD in Healthy Mice
There was small amount of uptake in the heart, liver and lungs, which decreased quickly over time.

CC(O)[C@@H]1NC(=O)[C@H](CCCCN)NC(=O)[C@@H](Cc2c[nH]c3ccccc23)NC(=O)[C@H](Cc2ccc(O)cc2)NC(=O)[C@@H](NC(=O)[C@@H](Cc2ccccc2)NC(=O)COCCOCCOCCOCCNC(=O)C(CCC(=O)NCCOCCOCCOCCOCC(=O)NCCCC[C@@H]2NC(=O)[C@@H](Cc3ccc(O)cc3)NC(=O)[C@H](CC(=O)O)NC(=O)CNC(=O)[C@H](CCCNC(=N)N)NC2=O)NC(=O)COCCOCCOCCOCCNC(=S)Nc2ccc(CC3CN(CC(=O)O)CCN(CC(=O)O)CCN3CC(=O)O)cc2)CSSC[C@@H](C(=O)N[C@H](C(=O)O)[C@@H](C)O)NC1=O (stereo partly drawn) [^68Ga-NOTA-3PEG4-TATE-RGD, metal not drawn]
clearance from blood, heart and liver: cleared from the blood, heart and liver faster | distribution in brain tissues / blood-brain barrier passage: could not pass through the blood-brain barrier | route of excretion: mainly excreted through the kidneys
